Source: patent publication US20240327505A1 (published 2024)
Changes are numbered by the printed parent chain.

B1: AB-009123 (antibody, V domains shown)
VH: QVQLLQSGAEVRKPGASVKVSCKASGYTFSSYVMHWVRQAPGQGLEWMGWINTGNGNTRYSQKIQGRVTFTIDTAANTVNMEVSSLRSEDTAVYYCAREGLRATHYFDYWGRGTLVTVSS
VL: SYELTQPPSVSVSSGQTASIPCSGDRVGDRYVCWYQQKPGQSPVLVIYQDSKRPSGIPERFSGSNSGSTATLTISGTQAIDEADYYCQAWDSSTGGVFGGGTKLTVL
B2: AB-009263 (antibody, V domains shown)
VH: EVQLVQSGAEVKKPGESLRISCQSSGYSFSTYWIAWVRQTPEKGLEWMGIIYPGDSDTRYSPTFQGQVTISADTSISTAYLQWSSLKASDTAVYYCARFRFNWLLSYYYYYMDVWGKGTTVSVSS
VL: QSALTQPDSVSGSPGQSIAISCTGTSRDVGGYNYVSWYQQHPGKAPKLMIYEVSNRPSGVSDRFSGSKSDNTASLTISGLQGDDEANYYCSSYTDSGTLVFGGGTKVTVL
B3: AB-009293 (antibody, V domains shown)
VH: QAQLVESGGGVVQPGRSLRLSCAASGFNFNNYGMHWVRLAAGKGLEWVAFISYEGSITHYADSVKGRFTVSRDFSKNTLYLQMNRLTTGDTAVYYCAKRREVLHLWRDEMDVWGQGTTVTVSS
VL: DIQMTQSPPSLSASVGDRVTFTCRASQDITNSLAWFQQRPGKAPKSLIYAASTLHSGVPSKFSGSGSGTDFTLTITSLQPEDVATYYCQQYKTYPFTFGQGTRLEIK
B4: AB-009117 (antibody, V domains shown)
VH: ELQLVESGGGLVKPGGSLRLSCTASGFTFISYSISWVRQAPGKGLEWVSSISSYSNYIFYGDSVKGRFNISRDNPKNSVYLQLNSLRAEDTAVYYCVRDTSFYEGGGYYNRFEPWGQGTRVTVSS
VL: EIVMTQSPATLSVSPGERATLSCRASQSISINLAWYQQRPGQAPRLLIYGASTRATGIPARFSGSGSGTEFTLTISSLQSEDSAVYYCQQYNNWPPYTFGQGTTLEIK
B5: AB-009078 (antibody, V domains shown)
VH: QITLKESGPTLVKPTQTLTLTCTFSGFSLSTSGVGVGWIRQPPGKALEWLALIYWDDDKRYSPSLKSRLTITKDTSKNQVVLTMTNMDPVDTATYYCAHRPGDFWSGYYRYWGQGTLVTVSS
VL: not shown
B6: AB-009074 (antibody, V domains shown)
VH: QVQLVESGGGVVQPGRSLRLSCAASGFTFSSYGMHWVRQAPGKGLEWVAVIWYDGSNKYYADSVKGRFTISRDNSKNTLYLQMNSLRAEDTAVYYCAREGLVGATTGFDYWGQGTLVTVSS
VL: SYELTQPPSVSVSPGQTARITCSGDALPKKYAYWYQQKSGQAPVLVIYEDSKRPSGIPERFSGSSSGTMATLTISGAQVEDEADYYCYSTDSSGNHGVFGTGTKVTVL
B7: AB-009306 (antibody, V domains shown)
VH: QVQLVQSGAEVKKPGASVKVPCKASGYTFTSYQMHWVRRAPGQGLEWMGLIDPDTGGTRYTQNFQGRVTMTRDTSTTTVYMELNSLTSGDTAVYYCARGGRVGATYPYNMDVWGKGTTVTVSS
VL: B6 VL with E82D, A83S, Y88F, T101G, K104R, V105L
B8: AB-009637 (antibody, V domains shown)
VH: QVQLVQSGAEVKKPGSSVKVSCKASGGTFSSYAISWVRQAPGQGLEWMGGIIPILGTANYAQKFQGRVTITADKSTSTAYMELSSLRSEDTAMYYCAREGGFYGSGRNFDYWGQGTLVTVSS
VL: not shown
B9: AB-009108 (antibody, V domains shown)
VH: QVQLQESGPGLVKPSETLALTCTVSGDSIINNNFYWGWLRQPPGQGLEWIGSLFHTGSAYYNSSLKSRVRSSVDTARNQISLRLSSVTAADTAVYYCARVNIVSVPAPPGAIEGWFDPWGQGTRVTVSP
VL: SYELTQPPSVSVSLGQTARISCSGDALPTKYVHWYQQKAGQAPVVVIFRDTERPSEIPERFSGSSSGTTVTLTISGVQAEDEADYYCQSVDGSGFYVFGSGTKVTVL
B10: AB-009634 (antibody, V domains shown)
VH: QVTLKESGPALVKPTQTLTLTCTFSGFSLSTSGMRVSWIRQPPGKALEWLARIDWDDDKFYSTSLKTRLTISKDTSKNQVVLTMTNMDPVDTATYYCARYYYYGMDVWGQGTTVTVSS
VL: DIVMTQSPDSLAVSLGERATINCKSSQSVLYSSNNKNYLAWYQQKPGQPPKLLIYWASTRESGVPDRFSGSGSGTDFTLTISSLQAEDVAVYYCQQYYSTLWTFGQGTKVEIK
B11: AB-009722 (antibody, V domains shown)
VH: QVQLVQSGAEVRKPGSSVKVSCNVSGGIFNSYKITWVRQAPGQGLEWMGGIIAIFGTADYAQRFQGRLSITADESTSTAYMELSSLRSDDTAVYYCTRERFSNYFDPWGQGTLVTVSS
VL: EVVLTQSPATLSLSPGERATLSCRASQSVSSFLGWYQQKPGQAPRLLIYDASNRASGIPARFSGSGSGTDFTLTISKLEPEDFAVYYCQQRSRGPSGITFGQGTRLEIK
B12: AB-009646 (antibody, V domains shown)
VH: QVQLVESGGGVVQPGRSLRLSCAASGFTFSSYAMHWVRQAPGKGLEWVAVISYDGSNKYYADSVKGRFTISRDNSKNTLYLQMNSLRAEDTAVYYCARACSSTSCYKGDAFDIWGQGTMVTVSS
VL: SYELTQPPSVSVSPGQTARITCSGDALPKQYAYWYQQKPGQAPVLVIYKDSERPSGIPERFSGSSSGTTVTLTISGVQAEDEADYYCQSADSSGTYSWVFGGGTKLTVL
B13: AB-009275 (antibody, V domains shown)
VH: QVTLRESGPALVKPTQTLTLTCTFSGFSLSTSGMRVSWIRQPPGKALEWLARIDWDDDKFYSTSLKTRLTISKDTSKNQVVLTMTNMDPVDTATYYCARSNYDILTGRLDAFDIWGQGTMVTVSS
VL: not shown
B14: AB-009731 (antibody, V domains shown)
VH: QVQLVQSGAEVKKTGASVKLSCKASGYSLTSYAMHWVRQAPGQRLEWMGWLNGGNGNTKYSQKFQARVTITSDTSARTVYMELSSLTSEDTAVYYCARADHSTYWYGWFDPWGQGTLVTVSS
VL: QSVLTQPPSASGTPGQRVTISCSGSTSNIGSNYVFWYQQFPGTAPKLLIYRNDQRPSGVPDRFSASKAGTSASLAISGLRSEDEADYYCTSWDDSLNGPLFGGGTKLTVL
B15: AB-009280 (antibody, V domains shown)
VH: QVQLVESGGGVVQPGRSLRLSCAASGFTFSSYGMHWVRQAPGKGLEWVAVISYDGSNKYYADSVKGRFTISRDNSKNTLYLQMNSLRAEDTAVYYCAKSRGGGYYYYYMDVWGKGTTVTVSS
VL: DIQMTQSPSSLSASVGDRVTITCRASQGISNYLAWFQQKPGKAPKSLIYAASSLQSGVPSKFSGSGSGTDFTLTISSLQPEDFATYYCQQYNSYPPTFGQGTKLEIK
B16: AB-009609 (antibody, V domains shown)
VH: QVQLVQSGAEVKKPGASVKVSCKVSGYTLTELSMHWVRQAPGKGLEWMGGFDPEDAETIYAQKFQGRVTMTEDTSTDTAYMELSSLRSEDTAVYYCATALAVTGTSDSYYYYYGMDVWGQGTTVTVSS
VL: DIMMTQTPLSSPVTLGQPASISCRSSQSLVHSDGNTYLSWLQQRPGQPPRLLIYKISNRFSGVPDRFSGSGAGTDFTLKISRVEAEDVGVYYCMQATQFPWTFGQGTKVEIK
B17: AB-009619 (antibody, V domains shown)
VH: QVQLVQSGAEVKKPGASVKVSCKVSGYTLIELSMHWVRQAPGKGLEWMGGFDPEDGETIYAQKFQGRVTMTEDTSTDTAYMELSSLRSEDTAVYYCATGPAAATSGWFDPWGQGTLVTVSS
VL: QSALTQPASVSGSPGQSITISCTGTSSDVGGYNYVSWYQQHPGKAPKLMIYDVSNRPSGVSNRFSGSKSGNTASLTISGLQAEDEADYYCSSYTSSSTRVFGGGTKLTVL
B18: AB-009635 (antibody, V domains shown)
VH: not shown
VL: B6 VL with G97R, T101G, V105L
B19: AB-009270 (antibody, V domains shown)
VH: QMQLVQSGPEVKKPGTSVKVSCKASGFTFTSSAMQWVRQARGQRLEWIGWIVVGSGNTNYAQKFQERVTITRDMSTSTAYMELSSLRSEDTAVYYCAVNYCSSTSCYDAFDIWGQGTMVTVSS
VL: not shown
B20: AB-009615 (antibody, V domains shown)
VH: QVQLVESGGGVVQPGRSLRLSCAASGFTFSSYGMHWVRQAPGKGLEWVAVIWYDGSNKYYADSVKGRFTISRDNSKNTLYLQMNSLRAEDTAVYYCAKVGSPYCSGGSCYSGYFDYWGQGTLVTVSS
VL: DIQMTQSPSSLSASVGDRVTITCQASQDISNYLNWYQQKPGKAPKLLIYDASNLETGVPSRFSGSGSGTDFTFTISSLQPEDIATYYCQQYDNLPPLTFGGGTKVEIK
B21: AB-009281 (antibody, V domains shown)
VH: EVQLVETGGGLIQPGGSLRLSCAASGFTVSSNYMSWVRQAPGKGLEWVSVIYSGGSTYYADSVKGRFTISRDNSKNTLYLQMNSLRAEDTAVYYCARDLYYYGMDVWGQGTTVTVSS
VL: DIQLTQSPSFLSASVGDRVTITCRASQGISSYLAWYQQKPGKAPKLLIYAASTLQSGVPSRFSGSGSGTEFTLTISSLQPEDFATYYCQQLNSYPTFGQGTKVEIK
B22: AB-009346 (antibody, V domains shown)
VH: EVQLVESGGGVVRPGGSLRLSCAASGFTFDDYGMSWVRQAPGKGLEWVSGINWNGGSTGYADSVKGRFTISRDNAKNSLYLQMNSLRAEDTALYYCARWPLLGISGYYHYYMDVWGKGTTVTVSS
VL: QSALTQPRSVSGSPGQSVTISCTGTSSDVGGYNYVSWYQQHPGKAPKLMIYDVSKRPSGVPDRFSGSKSGNTASLTISGLQAEDEADYYCCSYAGSYTLLFGGGTKLIVL

Each binder was assayed against SARS-CoV-2 spike S2 protein (SARS-CoV-2, UniProt P0DTC2 686-1213).

Question: How did the Kd turn out when B1 was run?
Answer: 18.9 nM

Question: What about the koff of the same binder?
Answer: 0.000802 s⁻¹

Question: And the kon?
Answer: 42500 M⁻¹ s⁻¹

Question: What does the source list for B2?
Answer: Kd: 0.0383 nM; koff: 3.82e-07 s⁻¹; kon: 9980 M⁻¹ s⁻¹

Question: B3 was tested. Which Kd did it give?
Answer: 0.0628 nM

Question: And the koff?
Answer: 3.25e-07 s⁻¹

Question: And the kon?
Answer: 5170 M⁻¹ s⁻¹

Question: For B4, which Kd is on record?
Answer: 11.5 nM

Question: What about the koff of the same binder?
Answer: 0.000438 s⁻¹

Question: What about the kon of the same binder?
Answer: 38200 M⁻¹ s⁻¹

Question: For B5, which Kd is on record?
Answer: 0.0474 nM

Question: And the koff?
Answer: 2.44e-07 s⁻¹

Question: And the kon?
Answer: 5150 M⁻¹ s⁻¹

Question: For B6, which Kd is on record?
Answer: 91.3 nM

Question: What about the koff of the same binder?
Answer: 0.0011 s⁻¹

Question: What about the kon of the same binder?
Answer: 12000 M⁻¹ s⁻¹

Question: Which results are given for B7?
Answer: Kd: 0.22 nM; koff: 2.44e-07 s⁻¹; kon: 1110 M⁻¹ s⁻¹

What follows are binders tested against SARS-CoV-2 spike S1 protein (SARS-CoV-2, UniProt P0DTC2 16-685).

Question: B8 was tested. Which Kd did it give?
Answer: 412 nM

Question: What about the koff of the same binder?
Answer: 0.000174 s⁻¹

Question: And the kon?
Answer: 421 M⁻¹ s⁻¹

Question: B9 was tested. Which Kd did it give?
Answer: 94.3 nM

Question: And the koff?
Answer: 0.0126 s⁻¹

Question: And the kon?
Answer: 134000 M⁻¹ s⁻¹

Question: B10 was tested. Which Kd did it give?
Answer: 24.8 nM

Question: And the koff?
Answer: 0.000496 s⁻¹

Question: And the kon?
Answer: 20000 M⁻¹ s⁻¹

Question: With B11 as the binder, how does the Kd read?
Answer: 41.2 nM

Question: And the koff?
Answer: 0.00236 s⁻¹

Question: What about the kon of the same binder?
Answer: 57300 M⁻¹ s⁻¹

Question: Which Kd does the source give for B12 here?
Answer: 150 nM

Question: And the koff?
Answer: 0.00231 s⁻¹

Question: And the kon?
Answer: 15500 M⁻¹ s⁻¹

Question: Which results are given for B13?
Answer: Kd: 127 nM; koff: 0.00083 s⁻¹; kon: 6530 M⁻¹ s⁻¹

Question: What does the source list for B14?
Answer: Kd: 47.9 nM; koff: 0.00294 s⁻¹; kon: 61400 M⁻¹ s⁻¹

Question: For B15, which Kd is on record?
Answer: 20.5 nM

Question: And the koff?
Answer: 0.000536 s⁻¹

Question: And the kon?
Answer: 26200 M⁻¹ s⁻¹

Question: Which Kd does the source give for B16 here?
Answer: 49.4 nM

Question: What about the koff of the same binder?
Answer: 0.00229 s⁻¹

Question: And the kon?
Answer: 46400 M⁻¹ s⁻¹

Question: Which results are given for B17?
Answer: Kd: 25.8 nM; koff: 0.000726 s⁻¹; kon: 28100 M⁻¹ s⁻¹

Question: Which results are given for B18?
Answer: Kd: 10.5 nM; koff: 0.000749 s⁻¹; kon: 71500 M⁻¹ s⁻¹

Target: SARS-CoV-2 spike S1 protein (SARS-CoV-2, UniProt P0DTC2 16-685)
Remark: another data set of the same source

Question: For B19, which Kd is on record?
Answer: 3.02 nM

Question: How did the Kd turn out when B20 was run?
Answer: 36.6 nM

Question: And the koff?
Answer: 0.00276 s⁻¹

Question: What about the kon of the same binder?
Answer: 75400 M⁻¹ s⁻¹

Question: Which Kd does the source give for B21 here?
Answer: 16.7 nM

Question: What about the koff of the same binder?
Answer: 0.00136 s⁻¹

Question: And the kon?
Answer: 81200 M⁻¹ s⁻¹

Question: What does the source list for B22?
Answer: Kd: 12.5 nM; koff: 0.000523 s⁻¹; kon: 41700 M⁻¹ s⁻¹
